Test results as given in the supplement of paper PMC9170038.
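Further: bound reporter read as fluorescence of individual clusters on recovered sequencing chips by microscopy, with normalized cluster intensities fitted with a binding model.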

Each sequence was assayed on K4 kissing-loop RNA reporter (assay: apparent KD of K4 kissing-loop reporter; higher = weaker reporter binding). Conditions: Eterna round: R107; input ligand: none.
Procedure: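 RNA-MaP round R107: designed RNA switches with theophylline, tryptophan, arginine or FMN aptamers are transcribed on-chip within common flanks. They are titrated with a labelled K4 kissing-loop RNA reporter in RNA-MaP buffer (100 mM Tris pH 7.5, 80 mM KCl, 4 mM MgCl2), without ligand or with the indicated ligand. Median apparent KD per design.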
With “GCAGUGAUGUUGCGGAUGUACAGUGGAGUGCGAGGACCGGUACGGCCGCCACUCGUACAGAACAAGCUAAUAUAUCGAUAGGUGA [X]” the “apparent KD of K4 kissing-loop reporter” value was 263 nM. With “UAAUGUGGCACAGGAUAUACUGAUUGGAGUGAUGUUCCAAACAUGGACGUGAGACUUUUACAAGAAGUAGAAGGGUGUUAGAUAU [Exclusion FMN B GF 20]” the “apparent KD of K4 kissing-loop reporter” value was 304 nM. “AGGCACGAGCAAGGAUAUCGAGUAGAGUGAUGUUCUGCCUGGGUUGGCCCGAAAGGGCCUUCCCAGCGAGAAGGUGCUCGUGCCU [#2 Same State - FMN A Attempt #9 (HarryS)]” was tested, and the “apparent KD of K4 kissing-loop reporter” value was 766 nM. “GGAUCCACCAGUGAUGUUGGAGAAAACUCCAAGGAUAUGACGAAAGUCAGAAGGUGGUAGACUGGUCAAAGUCCGGUCGGAUCCA [FmnA10 U66]” was tested, and the “apparent KD of K4 kissing-loop reporter” value was 338 nM. For “UAUUUAAAUAAAAUAAAAUAAAUUGCUGAUACCAGAGCCAAUUGGCUCCCUUGGCAGCGGAUCGAGUGAUGUUCGUAAAAUUUAU [AK2 SS Theophylline A]”, the “apparent KD of K4 kissing-loop reporter” value was 29.6 nM. “GCCUGUGCGCGAAGGAGCGCCGUGACAGGUUACUGCCUUGGGCAGUGAUGUUGCUCAAUCUGGCAGGUAGGUCGCGUGCACAGGC” was tested, and the “apparent KD of K4 kissing-loop reporter” value was 201 nM. For “AGCAUUUUCAGAAGGAGCGUGAAUUAUUCAUAAUUAUAUUAUACGAGUGAUGUUCGUAUUUCACAGGUAGGUCGCUGAUAUAGCA [JR_SSArginiB_Sub002]”, the “apparent KD of K4 kissing-loop reporter” value was 50.1 nM. In the case of “AGUUUAGAGUGACUCGAUAAGAGUCACAAACGAGGACCGGUACGGCCGCCACUCGAAAUAACGAGAGUGAUGUUCUCGCUGGGCA [FiskerMod 3 - Jieux - Same State Tryptophan A]”, the “apparent KD of K4 kissing-loop reporter” value was 458 nM. In the case of “UUGGAGUGAUGUUCCAUAUCUUGAGCCGAAGGAGCGGCAUUAUUGCCAGGUAGGUCGCGGCAGAAGGUACCAGUGAUGUUGGAAA [Same State Arginine A GF 4]”, the “apparent KD of K4 kissing-loop reporter” value was 151 nM. In the case of “AAUGUACAAGUGAUGUUUGUACUUUCCGAAGGAGCGUCUAAUAAGACAGGUAGGUCGCGGAUUCUCUUAAUUAUCAGGUCAUUAA [JR_ExcArginiA_Sub017]”, the “apparent KD of K4 kissing-loop reporter” value was 86.2 nM. With “AGUGAUGUAUGGCGGUGUGUCGCUUAAAAUCAGGAUAUAUAAACAAAUAGAAGGGAUGGCGGAGUGAUGUUCCGCCGGCCGCCAU [FMN A Exl V2]” the “apparent KD of K4 kissing-loop reporter” value was 134 nM. In the case of “UAAUUUAUGUCUUUAAUAUAAUUUUCAGAUACCAGUGAUUAUUAACACCCUUGGCAGCUGUGUAGAGUGAUGUUCUCAUGCUUAA [#07 K4 Theophylline A Exclusion]”, the “apparent KD of K4 kissing-loop reporter” value was 365 nM. With “GGAUAGGAUAGAGGAUAUGGCUUACGCAGAAAUAACUUAUUGUGUAAAUCCAUAGGGAGUGAUGUUCCAGAAGGCUGUCCUAUCG [MatMod 17 - Jieux - Exclusion - FMN B]” the “apparent KD of K4 kissing-loop reporter” value was 251 nM. For “UUUUAAUGCAGUGAUGUUGCUAAUAAAACAGAGGAUAUGCAUGGAAGCAGAAGGCUGAUAUAUUAUACUUUAAUAUAUUAUAUUU [JR_SSFMNA_Sub011]”, the “apparent KD of K4 kissing-loop reporter” value was 121 nM. In the case of “CGUUUAUAGGAGGAUACCAGUACGGAUAAAGUACGUUAAUAGUAGAGUGAUGUUCUAAAGUACCCUUGGCAGCUUAGAGUGAGUG [ExTheophylB.N]”, the “apparent KD of K4 kissing-loop reporter” value was 106 nM. In the case of “GAUGAAUGCGGAAGGAGCGAGUUUUUGGGAGUGAUGUUCCCUGCAUAUGCACGUGGGAAAGCUCAGGUAGGUCGCCGCGCUUGUU [Same State Arginine B GF 28]”, the “apparent KD of K4 kissing-loop reporter” value was 324 nM. In the case of “UUGGCUGGACGGGAUACCAGCCAAAUCGUGUGCUUAGGAUGUCUAAGAGCCAGUGAUGUUGGCCCUUGGCAGCCCUCCUAGCUUG [Ordigear]”, the “apparent KD of K4 kissing-loop reporter” value was 138 nM.

Same assay, conditions: Eterna round: R107; input ligand: theophylline 20 uM
“AUGGUUGUCGUAGGAUAUGUAGGAUAUUCUAAAAUAUGAAGUGAUGUUUCUAUAAUAAGAAGAAGGACAGAAGGACGAUAACCAC [FmnBS 1 - SaraBot transfer #DoubleAptamer]” was tested, and the “apparent KD of K4 kissing-loop reporter” value was 89.3 nM. With “AGCUAGUACGCAGGAUAUUGAACAUCAUUUAGUGAGAUCGAGUGAUGUUCGAUCACGACUUCAGUUCGAGAAGGGCGUACUAGCA [#02 K4 FMN B Same State]” the “apparent KD of K4 kissing-loop reporter” value was 1070 nM. With “AGUGAUGUGGGAAGGAGCGCUAUAAGACUUCAGUGAUGUUGAAGUGCUGGUUUAGUGUUGUAGCAGGUAGGUCGCCUAGAUGUUA [KL-XARG-B11]” the “apparent KD of K4 kissing-loop reporter” value was 196 nM. In the case of “UUCCUAUUAUUAACACUAUAUACAACUGAAGGAGCGACAAUAAAGUCAGGUAGGUCGCAGAAUUAAUGAGUGAUGUUCAUUUUUA [JR_ExcArginiA_Sub013]”, the “apparent KD of K4 kissing-loop reporter” value was 124 nM. “GGAUGGUAGGCGGCCGCCACUAAAACUGAACAAAUAUAAACCAGUGAUGUUGGUAUGAUGAAGUAUAGGACCGGGCCUAGAUAGA [Exclusion - Tryptophan B (Freestyle 1)]” was tested, and the “apparent KD of K4 kissing-loop reporter” value was 160 nM. For “GGGAGGAAAAUUUUCCUCAAAAGUUGGCUACAGGAUAUCGUGGGAAUGAGAAGGGUAACCGAGACGCCCAGUGAUGUUGGGUGCC [Antegete]”, the “apparent KD of K4 kissing-loop reporter” value was 251 nM. For “AAGCAGUCUCUUGUAGUCAUCGAAGAUGAACGAGGACCGGUACGGCCGCCACUCGGAGUGAUGUUCCGAAGGCUGCAAAAUAAAA [MatMod 18 - Jieux - Exclusion - Tryptophan A]”, the “apparent KD of K4 kissing-loop reporter” value was 404 nM. With “AAUUAAUACAGAAGGAGCGUGUUUUUUAAUUUAUUUUCAUGAUCGAGUGAUGUUCGAUAUACACAGGUAGGUCGCUGUAUAUUUA [JR_SSArginiB_Sub008]” the “apparent KD of K4 kissing-loop reporter” value was 139 nM. “AUUUGUUUAUGUGAUACCAGACUUUGCAGUGAUGUUGCUUUUAUUUUUGAAUUUUAAAUAGUCCCUUGGCAGCACUAUGUAUUUA [JR_SSTheophyB_Sub009]” was tested, and the “apparent KD of K4 kissing-loop reporter” value was 137 nM. For “GGUGCUGUCUGUGCCGCCCUCCUCGUCCCUCGAGGACCGGUACGGCCGCCACUCGAGUGAUGUUCGGGUAGCCCUCCCUGCCAGC [BDazzled - #21 Exc. Tryptophan A]”, the “apparent KD of K4 kissing-loop reporter” value was 438 nM. In the case of “UGAACCCGGUCGGCCGCCACUCUGAGAACCAUCGCCCUACGUGCAGUGAUGUUGUACCUAAUGAGGAGGACCGGGACUGGGCGGC [theeternabot_sameState_KL_Trp_B_36]”, the “apparent KD of K4 kissing-loop reporter” value was 204 nM. With “AGUCUGUAUGACAUAAGUGAUGUUUAUGUUCGAGGACCGGUACGGCCGCCACUCGCAAAUGUAUGAUUUCACGUUUGUGCAAGUA [KL-XTryp-A #analogue]” the “apparent KD of K4 kissing-loop reporter” value was 220 nM. “AAUGAUGAUUGACACAUUUACUAAAAGGAAGGAGCGGCGAAGUAGCCAGGUAGGUCGCCUUAUAGCAGUGAUGUUGCUAUUUGUU [JR_Nu_ExcArginiA_Sub027]” was tested, and the “apparent KD of K4 kissing-loop reporter” value was 105 nM. “AGUGUACAGUCGGCCGCCACUCACUCCUCCUGCGUUAACGAGUGAUGUUUGUUUUUUAGUGGUACGAGGACCGGGACUUCUCUGA [theeternabot_sameState_KL_Trp_B_35]” was tested, and the “apparent KD of K4 kissing-loop reporter” value was 245 nM. “AAACAUCACUGGGAGUGAUGUUCUCAGUGACGAGGACCGGUACGGCCGCCACUCGCGAGAGAUAUAGAUGAGUAAUGACAUCAUU [Excl Tryptophan A V3]” was tested, and the “apparent KD of K4 kissing-loop reporter” value was 274 nM. “AGUGAUGUUGUGUUAUGUUUGGGAAGUGAUCGAGGACCGGUACGGCCGCCACUCGAGUGAUGAGUGAGUGAUGUUUGUUUAGGGA [whbob_SS_Tryp_A_m9]” was tested, and the “apparent KD of K4 kissing-loop reporter” value was 1120 nM. “GGAUCCACCAGUGAUGUUGGAGAAAACUUCAAGGAUAUGACGAAAGUCAGAAGGUGGUAGACUGGGCAAAGUCCGGUCGGAUCCA [FmnA10 U29+G66]” was tested, and the “apparent KD of K4 kissing-loop reporter” value was 402 nM. For “UUUUAAAUAUCUGAUACCAGAGAAAAUAUAUGUAGUGAUGUUAUAUACAAAAUAAAUAAGCUCCCUUGGCAGCAGUAUUAAUUUU [AstrosExyTheB#1]”, the “apparent KD of K4 kissing-loop reporter” value was 688 nM. “GGUAGCAUCGCGGCCGCCACUAAUCGCUAAGGCUCAGGACCCUAAUAGCGAGUGAUGUUCGCCCUUAGGACCGGGCGAUGCUACC” was tested, and the “apparent KD of K4 kissing-loop reporter” value was 87.5 nM. “UGAUACCAGACUGAUACCAGCCAGUGAUGUUGGCAAUAUCCAAGGUGAGUCAAAGACUCGGGCCCUUGGCAGCAGUCUGGUAUCU [TheoBX 7 #SwitchBubble #StaticStem]” was tested, and the “apparent KD of K4 kissing-loop reporter” value was 152 nM. In the case of “GAUUUAGAGGCGGCCGCCACUAGUGAUGUUAGUGAUGUUUGAUACUGUAUAUAUCGGCGUGUAGAUAGGACCGGGCCAGAUGGAG [tbqqmullin]”, the “apparent KD of K4 kissing-loop reporter” value was 229 nM. In the case of “GCAGUGAUGUUGCGGAUGUACAGUGGAGUGCGAGGACCGGUACGGCCGCCACUCGUACAGAACAAGCUAAUAUAUCGAUAGGUGA [X]”, the “apparent KD of K4 kissing-loop reporter” value was 282 nM. For “UAAUGUGGCACAGGAUAUACUGAUUGGAGUGAUGUUCCAAACAUGGACGUGAGACUUUUACAAGAAGUAGAAGGGUGUUAGAUAU [Exclusion FMN B GF 20]”, the “apparent KD of K4 kissing-loop reporter” value was 448 nM. “AGGCACGAGCAAGGAUAUCGAGUAGAGUGAUGUUCUGCCUGGGUUGGCCCGAAAGGGCCUUCCCAGCGAGAAGGUGCUCGUGCCU [#2 Same State - FMN A Attempt #9 (HarryS)]” was tested, and the “apparent KD of K4 kissing-loop reporter” value was 492 nM. With “GGAUCCACCAGUGAUGUUGGAGAAAACUCCAAGGAUAUGACGAAAGUCAGAAGGUGGUAGACUGGUCAAAGUCCGGUCGGAUCCA [FmnA10 U66]” the “apparent KD of K4 kissing-loop reporter” value was 297 nM. In the case of “UAUUUAAAUAAAAUAAAAUAAAUUGCUGAUACCAGAGCCAAUUGGCUCCCUUGGCAGCGGAUCGAGUGAUGUUCGUAAAAUUUAU [AK2 SS Theophylline A]”, the “apparent KD of K4 kissing-loop reporter” value was 61.5 nM. With “GCCUGUGCGCGAAGGAGCGCCGUGACAGGUUACUGCCUUGGGCAGUGAUGUUGCUCAAUCUGGCAGGUAGGUCGCGUGCACAGGC” the “apparent KD of K4 kissing-loop reporter” value was 156 nM. For “AGCAUUUUCAGAAGGAGCGUGAAUUAUUCAUAAUUAUAUUAUACGAGUGAUGUUCGUAUUUCACAGGUAGGUCGCUGAUAUAGCA [JR_SSArginiB_Sub002]”, the “apparent KD of K4 kissing-loop reporter” value was 81.6 nM. For “AGUUUAGAGUGACUCGAUAAGAGUCACAAACGAGGACCGGUACGGCCGCCACUCGAAAUAACGAGAGUGAUGUUCUCGCUGGGCA [FiskerMod 3 - Jieux - Same State Tryptophan A]”, the “apparent KD of K4 kissing-loop reporter” value was 384 nM. In the case of “UUGGAGUGAUGUUCCAUAUCUUGAGCCGAAGGAGCGGCAUUAUUGCCAGGUAGGUCGCGGCAGAAGGUACCAGUGAUGUUGGAAA [Same State Arginine A GF 4]”, the “apparent KD of K4 kissing-loop reporter” value was 126 nM. For “AAUGUACAAGUGAUGUUUGUACUUUCCGAAGGAGCGUCUAAUAAGACAGGUAGGUCGCGGAUUCUCUUAAUUAUCAGGUCAUUAA [JR_ExcArginiA_Sub017]”, the “apparent KD of K4 kissing-loop reporter” value was 80.6 nM. With “AGUGAUGUAUGGCGGUGUGUCGCUUAAAAUCAGGAUAUAUAAACAAAUAGAAGGGAUGGCGGAGUGAUGUUCCGCCGGCCGCCAU [FMN A Exl V2]” the “apparent KD of K4 kissing-loop reporter” value was 136 nM.
